Results reported in the array DNA melting data of Ke et al..

test: melting temperature; melt of duplexes; conditions: sodium 0.0675 M; strand 1 µM

Row | Substance | Tm [°C]
1 | CGACGTGCGTAATGTGCTG+CAGCACATTCAGCACGTCG ((((((((..(((((((((+)))))))))..)))))))) | 54.7
2 | CGACGTGCGCCATGTGCTG+CAGCACATTCGGCACGTCG ((((((((...((((((((+))))))))...)))))))) | 47.5
3 | CGACGTGCTATATGTGCTG+CAGCACATAAAGCACGTCG (((((((((.(((((((((+))))))))).))))))))) | 55.6
4 | CGACGTGCTACATGTGCTG+CAGCACATCTGGCACGTCG ((((((((.(.((((((((+)))))))).).)))))))) | 49.9
5 | CGACGTGCGGGATGTGCTG+CAGCACATAACGCACGTCG (((((((((..((((((((+))))))))..))))))))) | 59.4
6 | CGACGTGCATAATGTGCTG+CAGCACATTCGGCACGTCG ((((((((..(((((((((+)))))))))..)))))))) | 51.8
7 | CGACGTGCCTTATGTGCTG+CAGCACATAGAGCACGTCG ((((((((..(((((((((+)))))))))..)))))))) | 51.8
8 | CGACGTGCTGTATGTGCTG+CAGCACATGGGGCACGTCG ((((((((...((((((((+))))))))...)))))))) | 51.4
9 | CGACGTGCCCTATGTGCTG+CAGCACATTGAGCACGTCG ((((((((.(.((((((((+)))))))).).)))))))) | 51.8
10 | CGACGTGCGCAATGTGCTG+CAGCACATGGAGCACGTCG ((((((((.(.((((((((+)))))))).).)))))))) | 60.2
11 | CGACGTGCACGATGTGCTG+CAGCACATTAAGCACGTCG ((((((((...((((((((+))))))))...)))))))) | 46.5
12 | CGACGTGCGAGATGTGCTG+CAGCACATCCGGCACGTCG ((((((((..(((((((((+)))))))))..)))))))) | 55.7
13 | CGACGTGCGAGATGTGCTG+CAGCACATGAAGCACGTCG ((((((((...((((((((+))))))))...)))))))) | 55.4
14 | CGACGTGCGGGATGTGCTG+CAGCACATGGCGCACGTCG (((((((((..((((((((+))))))))..))))))))) | 57.5
15 | CGACGTGCCTTATGTGCTG+CAGCACATTTGGCACGTCG (((((((((..((((((((+))))))))..))))))))) | 54.3
16 | CGACGTGCCCGATGTGCTG+CAGCACATGCAGCACGTCG ((((((((...((((((((+))))))))...)))))))) | 49.6
17 | CGACGTGCTCAATGTGCTG+CAGCACATCAAGCACGTCG (((((((((..((((((((+))))))))..))))))))) | 51.6
18 | CGACGTGCCGCATGTGCTG+CAGCACATTTTGCACGTCG ((((((((...((((((((+))))))))...)))))))) | 46.2
19 | CGACGTGCCGCATGTGCTG+CAGCACATCCGGCACGTCG ((((((((((.((((((((+)))))))).)))))))))) | 58.2
20 | CGACGTGCGTTATGTGCTG+CAGCACATCCAGCACGTCG ((((((((...((((((((+))))))))...)))))))) | 49.6
21 | CGACGTGCGCAATGTGCTG+CAGCACATGAGGCACGTCG ((((((((...((((((((+))))))))...)))))))) | 52.4
22 | CGACGTGCACCATGTGCTG+CAGCACATTGAGCACGTCG ((((((((.(.((((((((+)))))))).).)))))))) | 47.2
23 | CGACGTGCCAGATGTGCTG+CAGCACATACCGCACGTCG ((((((((...((((((((+))))))))...)))))))) | 47.6
24 | CGACGTGCAGTATGTGCTG+CAGCACATCTAGCACGTCG ((((((((...((((((((+))))))))...)))))))) | 50.8

Row | Substance | Tm [°C]
25 | CGACGTGCGTAATGTGCTG+CAGCACATTGCGCACGTCG (((((((((.(((((((((+))))))))).))))))))) | 60.3
26 | CGACGTGCGGGATGTGCTG+CAGCACATGAAGCACGTCG ((((((((...((((((((+))))))))...)))))))) | 53.7
27 | CGACGTGCGAGATGTGCTG+CAGCACATGGGGCACGTCG ((((((((...((((((((+))))))))...)))))))) | 51.1
28 | CGACGTGCTCTATGTGCTG+CAGCACATCCGGCACGTCG ((((((((...((((((((+))))))))...)))))))) | 48.4
29 | CGACGTGCAGCATGTGCTG+CAGCACATGCGGCACGTCG ((((((((.((((((((((+)))))))))).)))))))) | 61.6
30 | CGACGTGCGCTATGTGCTG+CAGCACATTTAGCACGTCG ((((((((...((((((((+))))))))...)))))))) | 51.6
31 | CGACGTGCTCCATGTGCTG+CAGCACATCCGGCACGTCG ((((((((...((((((((+))))))))...)))))))) | 47.7
32 | CGACGTGCTTAATGTGCTG+CAGCACATAGCGCACGTCG ((((((((...((((((((+))))))))...)))))))) | 47.3
33 | CGACGTGCACCATGTGCTG+CAGCACATCCAGCACGTCG ((((((((...((((((((+))))))))...)))))))) | 42.2
34 | CGACGTGCATTATGTGCTG+CAGCACATTCGGCACGTCG ((((((((...((((((((+))))))))...)))))))) | 48.5
35 | CGACGTGCCACATGTGCTG+CAGCACATAGAGCACGTCG ((((((((...((((((((+))))))))...)))))))) | 49.4
36 | CGACGTGCAGCATGTGCTG+CAGCACATGCTGCACGTCG (((((((((((((((((((+))))))))))))))))))) | 66.1
37 | CGACGTGCCGTATGTGCTG+CAGCACATGATGCACGTCG ((((((((...((((((((+))))))))...)))))))) | 49.2
38 | CGACGTGCTAGATGTGCTG+CAGCACATTTTGCACGTCG ((((((((.(.((((((((+)))))))).).)))))))) | 52
39 | CGACGTGCGTGATGTGCTG+CAGCACATGCCGCACGTCG (((((((((..((((((((+))))))))..))))))))) | 54.7
40 | CGACGTGCAGGATGTGCTG+CAGCACATGTCGCACGTCG ((((((((...((((((((+))))))))...)))))))) | 51.4
41 | CGACGTGCGCTATGTGCTG+CAGCACATAGTGCACGTCG ((((((((.((((((((((+)))))))))).)))))))) | 58.2
42 | CGACGTGCGCCATGTGCTG+CAGCACATTTCGCACGTCG (((((((((..((((((((+))))))))..))))))))) | 51.6
43 | CGACGTGCAATATGTGCTG+CAGCACATCTTGCACGTCG ((((((((((.((((((((+)))))))).)))))))))) | 54.8
44 | CGACGTGCCTTATGTGCTG+CAGCACATCTGGCACGTCG (((((((((..((((((((+))))))))..))))))))) | 53.7
45 | CGACGTGCTTCATGTGCTG+CAGCACATCGCGCACGTCG ((((((((...((((((((+))))))))...)))))))) | 46.2
46 | CGACGTGCCTGATGTGCTG+CAGCACATCTTGCACGTCG ((((((((..(((((((((+)))))))))..)))))))) | 53.7
47 | CGACGTGCTGTATGTGCTG+CAGCACATTTGGCACGTCG ((((((((...((((((((+))))))))...)))))))) | 50.4
48 | CGACGTGCTTTATGTGCTG+CAGCACATAGCGCACGTCG ((((((((..(((((((((+)))))))))..)))))))) | 47.9

Row | Substance | Tm [°C]
49 | CGACGTGCGGGATGTGCTG+CAGCACATCGTGCACGTCG ((((((((..(((((((((+)))))))))..)))))))) | 56.2
50 | CGACGTGCGGAATGTGCTG+CAGCACATATAGCACGTCG ((((((((...((((((((+))))))))...)))))))) | 55
51 | CGACGTGCATAATGTGCTG+CAGCACATGTGGCACGTCG ((((((((...((((((((+))))))))...)))))))) | 51
52 | CGACGTGCACGATGTGCTG+CAGCACATGAAGCACGTCG ((((((((...((((((((+))))))))...)))))))) | 46.2
53 | CGACGTGCTGGATGTGCTG+CAGCACATGTGGCACGTCG ((((((((...((((((((+))))))))...)))))))) | 52.6
54 | CGACGTGCTCTATGTGCTG+CAGCACATGCTGCACGTCG ((((((((...((((((((+))))))))...)))))))) | 47
55 | CGACGTGCAGAATGTGCTG+CAGCACATCTTGCACGTCG (((((((((..((((((((+))))))))..))))))))) | 52.3
56 | CGACGTGCATTATGTGCTG+CAGCACATCGAGCACGTCG ((((((((...((((((((+))))))))...)))))))) | 47.4
57 | CGACGTGCCAGATGTGCTG+CAGCACATATTGCACGTCG ((((((((.(.((((((((+)))))))).).)))))))) | 50.1
58 | CGACGTGCGATATGTGCTG+CAGCACATTTTGCACGTCG ((((((((.(.((((((((+)))))))).).)))))))) | 52.5
59 | CGACGTGCAGAATGTGCTG+CAGCACATTGGGCACGTCG ((((((((..(((((((((+)))))))))..)))))))) | 53.8
60 | CGACGTGCAAAATGTGCTG+CAGCACATGCGGCACGTCG ((((((((...((((((((+))))))))...)))))))) | 51.2
61 | CGACGTGCCCTATGTGCTG+CAGCACATCGTGCACGTCG ((((((((.(.((((((((+)))))))).).)))))))) | 44.2
62 | CGACGTGCCCGATGTGCTG+CAGCACATCGTGCACGTCG ((((((((.((((((((((+)))))))))).)))))))) | 57.1
63 | CGACGTGCCAGATGTGCTG+CAGCACATAACGCACGTCG ((((((((...((((((((+))))))))...)))))))) | 48.6
64 | CGACGTGCAGTATGTGCTG+CAGCACATCATGCACGTCG (((((((((..((((((((+))))))))..))))))))) | 51.4
65 | CGACGTGCTAGATGTGCTG+CAGCACATAGAGCACGTCG (((((((((..((((((((+))))))))..))))))))) | 53.8
66 | CGACGTGCCACATGTGCTG+CAGCACATACAGCACGTCG ((((((((...((((((((+))))))))...)))))))) | 48.6
67 | CGACGTGCACGATGTGCTG+CAGCACATCCAGCACGTCG ((((((((..(((((((((+)))))))))..)))))))) | 50.6
68 | CGACGTGCATAATGTGCTG+CAGCACATCCCGCACGTCG ((((((((...((((((((+))))))))...)))))))) | 46.9
69 | CGACGTGCTCCATGTGCTG+CAGCACATCTTGCACGTCG ((((((((...((((((((+))))))))...)))))))) | 47.2
70 | CGACGTGCTAAATGTGCTG+CAGCACATCGCGCACGTCG ((((((((...((((((((+))))))))...)))))))) | 47.5
71 | CGACGTGCCGGATGTGCTG+CAGCACATCCAGCACGTCG ((((((((.((((((((((+)))))))))).)))))))) | 59
72 | CGACGTGCGCGATGTGCTG+CAGCACATTCTGCACGTCG ((((((((...((((((((+))))))))...)))))))) | 50.4
